Laboratory results taken from paper PMC4854488 (Biochemistry, 2016).
Numbering of substitutions follows the chain as printed. In names and notes the source's numbering stands.

Columns and labels:
[1] = target: T1, oxalate decarboxylase (OxDC) (Bacillus subtilis, UniProt O34714, DEL162-162); assay: X-ray crystal structure, […] Å; format: binding; conditions: Co(II)-substituted ΔE162 variant; oxalate end-on (monodentate) on Co(II) in N-terminal domain; cocrystallised, well pH 9.5, 17 °C
T1 construct: C-terminal His6 tag kept, expressed in E. coli BL21(DE3), Mn-containing (Co(II)-substituted for the crystal; model residues 6-382)

purified protein = substrate: O=C(O)C(=O)O; assay: purified protein; conditions: 25 °C
[2] = ΔE162 variant, decarboxylase activity, Mn enzyme (1.3 Mn/monomer), 100 mM citrate pH 4.2, 300 uM o-phenylenediamine, pH 4.2
[3] = ΔE162 variant, oxidase activity, Mn enzyme (1.3 Mn/monomer), 50 mM succinate pH 4.0, O2 co-substrate, pH 4.0
[4] = decarboxylase activity, Mn enzyme (1.4 Mn/monomer), 100 mM citrate pH 4.2, 300 uM o-phenylenediamine, pH 4.2
[5] = oxidase activity, Mn enzyme (1.4 Mn/monomer), 50 mM succinate pH 4.0, O2 co-substrate, pH 4.0
[6] = DDNS variant, decarboxylase activity, Mn enzyme (1.5 Mn/monomer), 100 mM citrate pH 4.2, 300 uM o-phenylenediamine, pH 4.2
[7] = DENS variant, decarboxylase activity, Mn enzyme (1.6 Mn/monomer), 100 mM citrate pH 4.2, 300 uM o-phenylenediamine, pH 4.2
[8] = DDSN variant, decarboxylase activity, Mn enzyme (1.5 Mn/monomer), 100 mM citrate pH 4.2, 300 uM o-phenylenediamine, pH 4.2
[9] = DESN variant, decarboxylase activity, Mn enzyme (1.5 Mn/monomer), 100 mM citrate pH 4.2, 300 uM o-phenylenediamine, pH 4.2
[10] = DESN variant, oxidase activity, Mn enzyme (1.5 Mn/monomer), 50 mM succinate pH 4.0, O2 co-substrate, pH 4.0

`O=C(O)C(=O)O` [oxalate] was tested, and the “X-ray crystal structure, 2.6 Å” value [1] was “we observed an oxalate molecule bound within the N-terminal domain”.

B1: oxalate decarboxylase (OxDC) (Bacillus subtilis subsp. subtilis str. 168; DEL162-162) (protein)
chain: MKKQNDIPQPIRGDKGATVKIPRNIERDRQNPDMLVPPETDHGTVSNMKFSFSDTHNRLEKGGYAREVTVRELPISENLASVNMRLKPGAIRELHWHKEAEWAYMIYGSARVTIVDEKGRSFIDDVGEGDLWYFPSGLPHSIQALEEGAEFLLVFDDGSFSNSTFQLTDWLAHTPKEVIAANFGVTKEEISNLPGKEKYIFENQLPGSLKDDIVEGPNGEVPYPFTYRLLEQEPIESEGGKVYIADSTNFKVSKTIASALVTVEPGAMRELHWHPNTHEWQYYISGKARMTVFASDGHARTFNYQAGDVGYVPFAMGHYVENIGDEPLVFLEIFKDDHYADVSLNQWLAMLPETFVQAHLDLGKDFTDVLSKEKHPVVKKKCSK
In the case of B1, the Km (purified protein; [2]) is reported as 1.6 ± 0.7 mM, the kcat (purified protein; [2]) is reported as 0.01 s⁻¹ and the kcat/Km (purified protein; [2]) is reported as 5 M⁻¹ s⁻¹. The Km (purified protein; [3]) was 3 ± 1 mM, the kcat (purified protein; [3]) was 0.05 s⁻¹ and the kcat/Km (purified protein; [3]) was 14 M⁻¹ s⁻¹.

B2: oxalate decarboxylase (OxDC) (Bacillus subtilis subsp. subtilis str. 168) (protein)
chain: MKKQNDIPQPIRGDKGATVKIPRNIERDRQNPDMLVPPETDHGTVSNMKFSFSDTHNRLEKGGYAREVTVRELPISENLASVNMRLKPGAIRELHWHKEAEWAYMIYGSARVTIVDEKGRSFIDDVGEGDLWYFPSGLPHSIQALEEGAEFLLVFDDGSFSENSTFQLTDWLAHTPKEVIAANFGVTKEEISNLPGKEKYIFENQLPGSLKDDIVEGPNGEVPYPFTYRLLEQEPIESEGGKVYIADSTNFKVSKTIASALVTVEPGAMRELHWHPNTHEWQYYISGKARMTVFASDGHARTFNYQAGDVGYVPFAMGHYVENIGDEPLVFLEIFKDDHYADVSLNQWLAMLPETFVQAHLDLGKDFTDVLSKEKHPVVKKKCSK
B2 showed a Km (purified protein; [4]) of 8 ± 1 mM, a kcat (purified protein; [4]) of 60 s⁻¹ and a kcat/Km (purified protein; [4]) of 5700 M⁻¹ s⁻¹. For the same molecule, the Km (purified protein; [5]) was 5.0 ± 0.2 mM, the kcat (purified protein; [5]) was 0.13 s⁻¹ and the kcat/Km (purified protein; [5]) was 19 M⁻¹ s⁻¹.

B3: oxalate decarboxylase (OxDC) (Bacillus subtilis subsp. subtilis str. 168; E162D/S161D) (protein)
chain: B2 chain with S161D, E162D
Work on B3 yielded a Km (purified protein; [6]) of 10 ± 2 mM, a kcat (purified protein; [6]) of 45 s⁻¹ and a kcat/Km (purified protein; [6]) of 2900 M⁻¹ s⁻¹.

B4: oxalate decarboxylase (OxDC) (Bacillus subtilis subsp. subtilis str. 168; S161D) (protein)
chain: B2 chain with S161D
Work on B4 yielded a Km (purified protein; [7]) of 10 ± 1 mM, a kcat (purified protein; [7]) of 63 s⁻¹ and a kcat/Km (purified protein; [7]) of 3900 M⁻¹ s⁻¹.

B5: oxalate decarboxylase (OxDC) (Bacillus subtilis subsp. subtilis str. 168; E162D/N163S/S161D/S164N) (protein)
chain: B2 chain with S161D, E162D, N163S, S164N
Work on B5 yielded a Km (purified protein; [8]) of 3 ± 1 mM, a kcat (purified protein; [8]) of 9 s⁻¹ and a kcat/Km (purified protein; [8]) of 2400 M⁻¹ s⁻¹.

B6: oxalate decarboxylase (OxDC) (Bacillus subtilis subsp. subtilis str. 168; N163S/S161D/S164N) (protein)
chain: B2 chain with S161D, N163S, S164N
B6 gave a Km (purified protein; [9]) of 6 ± 1 mM, a kcat (purified protein; [9]) of 40 s⁻¹ and a kcat/Km (purified protein; [9]) of 4400 M⁻¹ s⁻¹. For the same molecule, the Km (purified protein; [10]) was 11 ± 2 mM, the kcat (purified protein; [10]) was 0.1 s⁻¹ and the kcat/Km (purified protein; [10]) was 11 M⁻¹ s⁻¹.
